Experiment [1] addresses Medaka EP-1 serine protease domain (wild-type) (Oryzias latipes (Japanese Medaka)). The experiment can be described thus: cell-based or functional assay.
Experiment [2] deals with Medaka EP-2 serine protease domain (Oryzias latipes (Japanese Medaka)). The experiment can be described thus: cell-based or functional assay.

The text below walks through data of patent US20080213836A1.

Chain of Medaka EP-1 serine protease domain (wild-type) (Oryzias latipes (Japanese Medaka)) (chain, as listed by the source limits assumed): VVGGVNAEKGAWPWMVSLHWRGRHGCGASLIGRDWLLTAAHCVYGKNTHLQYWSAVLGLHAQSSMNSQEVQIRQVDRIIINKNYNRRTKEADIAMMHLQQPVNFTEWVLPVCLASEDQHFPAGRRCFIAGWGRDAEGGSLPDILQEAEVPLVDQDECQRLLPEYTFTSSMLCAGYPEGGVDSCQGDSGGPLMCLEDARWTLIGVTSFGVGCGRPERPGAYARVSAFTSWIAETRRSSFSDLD

For the substance SBTI (from UniProt P01070 25-205), the Inhibition (%) of GD4K-βNA hydrolysis at 0.1 mg/ml in experiment [1] and in experiment [2] was 99% throughout.
